Ends that are not written are not given here.
Assays:
[1] = molecular target: T1, ^19F-labeled Tom70 (5F-tryptophan, residues 108–608) (human, UniProt O94826 108-608, 5-fluoro-tryptophan at W169 and W523); assay: NMR titration
T1 sequence: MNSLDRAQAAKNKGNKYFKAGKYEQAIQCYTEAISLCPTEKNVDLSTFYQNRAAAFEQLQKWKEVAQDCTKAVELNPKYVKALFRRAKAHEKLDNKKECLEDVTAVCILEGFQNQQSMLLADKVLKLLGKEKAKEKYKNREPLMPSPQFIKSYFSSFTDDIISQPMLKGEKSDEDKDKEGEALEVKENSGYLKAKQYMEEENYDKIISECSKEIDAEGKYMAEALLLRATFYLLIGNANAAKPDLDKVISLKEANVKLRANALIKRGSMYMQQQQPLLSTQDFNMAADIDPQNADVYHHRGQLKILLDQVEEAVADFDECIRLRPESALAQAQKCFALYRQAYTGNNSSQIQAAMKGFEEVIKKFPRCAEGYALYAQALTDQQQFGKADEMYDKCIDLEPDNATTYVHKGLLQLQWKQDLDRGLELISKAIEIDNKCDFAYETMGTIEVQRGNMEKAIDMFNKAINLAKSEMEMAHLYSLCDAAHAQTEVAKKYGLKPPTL

[2] = molecular target: T2, human Tom70 (residues 108–608) (human, UniProt O94826 108-608); assay: ITC
T2 sequence: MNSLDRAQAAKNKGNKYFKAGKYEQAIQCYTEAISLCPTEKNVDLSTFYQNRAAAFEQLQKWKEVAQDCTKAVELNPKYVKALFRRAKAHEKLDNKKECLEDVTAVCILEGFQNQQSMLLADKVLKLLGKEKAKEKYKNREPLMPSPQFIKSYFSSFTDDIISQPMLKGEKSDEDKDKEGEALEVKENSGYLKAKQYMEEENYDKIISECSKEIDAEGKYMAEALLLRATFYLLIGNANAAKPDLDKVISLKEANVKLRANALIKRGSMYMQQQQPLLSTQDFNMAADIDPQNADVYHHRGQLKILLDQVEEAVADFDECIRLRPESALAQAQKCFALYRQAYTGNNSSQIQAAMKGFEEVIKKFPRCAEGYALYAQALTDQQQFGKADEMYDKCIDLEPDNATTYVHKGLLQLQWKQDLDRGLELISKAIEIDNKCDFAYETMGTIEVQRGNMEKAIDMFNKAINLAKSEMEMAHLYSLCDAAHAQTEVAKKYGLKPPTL

[3] = molecular target: Tom70:Hsp90_(EEVD) complex (human, UniProt O94826 108-608); assay: ITC
[4] = molecular target: ^19F Tom70:Orf9b_(Helix) complex (human | SARS-CoV-2, UniProt O94826 108-608, 5-fluoro-tryptophan at W169 and W523); assay: NMR titration
[5] = molecular target: Tom70:Orf9b_(Helix) complex (human | SARS-CoV-2, UniProt O94826 108-608); assay: ITC
[6] = molecular target: T2, human Tom70 (residues 108–608); assay: cryo-EM structure

Measured: binding result

IILRLGSPLSLNMARKTLNSLEDKAFQLTPIAVQY [Orf9b_(Helix) peptide]
binds: [1] | [2] | [3]

YDTSRMEEVD-OH [Hsp90_(EEVD) peptide]
binds: [4] | [5] | [6]
